The numbers were not newly measured in patent publication US20090318342A1, “Compounds” (IMPERIAL INNOVATIONS LIMITED, priority 2005, published 2009), which cites them from elsewhere.

The target of one series is T1, gelatinase A (MMP-2) (Homo sapiens, UniProt P08253).
T1 sequence (P08253 110-660): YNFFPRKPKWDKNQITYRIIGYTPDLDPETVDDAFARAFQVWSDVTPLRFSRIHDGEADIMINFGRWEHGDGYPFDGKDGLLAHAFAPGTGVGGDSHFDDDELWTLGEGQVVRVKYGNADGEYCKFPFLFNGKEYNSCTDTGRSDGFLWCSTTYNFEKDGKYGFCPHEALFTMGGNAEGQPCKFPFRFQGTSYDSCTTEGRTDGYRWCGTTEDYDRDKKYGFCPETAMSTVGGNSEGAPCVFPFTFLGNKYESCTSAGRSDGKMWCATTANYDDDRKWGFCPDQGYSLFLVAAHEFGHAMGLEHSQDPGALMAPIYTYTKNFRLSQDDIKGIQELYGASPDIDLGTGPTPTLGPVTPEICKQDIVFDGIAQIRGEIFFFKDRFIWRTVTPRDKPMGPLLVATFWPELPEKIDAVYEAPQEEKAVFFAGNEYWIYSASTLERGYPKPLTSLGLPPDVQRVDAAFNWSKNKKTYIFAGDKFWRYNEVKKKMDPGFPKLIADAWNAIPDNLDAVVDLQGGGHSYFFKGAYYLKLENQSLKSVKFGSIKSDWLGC
To be noted: Table I; data taken from ref. 8; read-out: Ki(app) MMP-2; cited from earlier work.

Series [1] has as its target catalytic domain of membrane-type 1 MMP (MMP-14(CD)). To be noted: Table I; data taken from ref. 27; read-out: Ki(app) MMP-14(CD); cited from earlier work.

B1: N-TIMP-3: N-terminal inhibitory domain of TIMP-3 (residues 1 to 121), C-terminally His-tagged, wild-type (protein)
chain: CTCSPSHPQDAFCNSDIVIRAKVVGKKLVKEGPFGTLVYTIKQMKMYRGFTKMPHVQYIHTEASESLCGLKLEVNKYQYLLTGRVYDGKMYTGLCNFVERWDQLTLSQRKGLNYRYHLGCN
For the molecule B1, the values for the Ki (in the series with gelatinase A (MMP-2); in series [1]) were 4.3 ± 0.5 nM and 0.8 ± 0.03 nM, respectively.
